# Assay results published in PMC2908316 (Journal of biomolecular screening, 2009).
# T1: full-length RGS8, GST-fusion protein, biotinylated (UniProt P49804 1-180, biotin on amines (Biotin-NHS, 3:1 biotin:RGS))
# T1 sequence (looked up): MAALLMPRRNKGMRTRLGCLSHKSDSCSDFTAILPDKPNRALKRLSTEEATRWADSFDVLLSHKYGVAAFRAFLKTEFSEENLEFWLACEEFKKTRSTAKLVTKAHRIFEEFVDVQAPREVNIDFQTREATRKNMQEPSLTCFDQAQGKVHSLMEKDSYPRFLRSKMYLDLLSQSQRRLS
# T2: RGS7 RH domain, GST-fusion protein, biotinylated (UniProt P49802 333-448, biotin on amines (Biotin-NHS, 3:1 biotin:RGS))
# T2 sequence (looked up): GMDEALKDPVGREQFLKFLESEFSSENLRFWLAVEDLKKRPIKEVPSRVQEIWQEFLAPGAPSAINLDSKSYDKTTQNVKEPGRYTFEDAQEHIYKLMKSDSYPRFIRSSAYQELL
# B1: Rat Gαo, N-terminal 6X-HIS tagged, labeled with AlexaFluor 532 (natural protein, UniProt P59215 1-354, looked up)
# chain: MGCTLSAEERAALERSKAIEKNLKEDGISAAKDVKLLLLGAGESGKSTIVKQMKIIHEDGFSGEDVKQYKPVVYSNTIQSLAAIVRAMDTLGVEYGDKERKADSKMVCDVVSRMEDTEPFSAELLSAMMRLWGDSGIQECFNRSREYQLNDSAKYYLDSLDRIGAADYQPTEQDILRTRVKTTGIVETHFTFKNLHFRLFDVGGQRSERKKWIHCFEDVTAIIFCVALSGYDQVLHEDETTNRMHESLMLFDSICNNKFFIDTSIILFLNKKDLFGEKIKKSPLTICFPEYPGSNTYEDAAAYIQTQFESKNRSPNKEIYCHMTCATDTNNIQVVFDAVTDIIIANNLRGCGLY
# modifications: AlexaFluor 532 carboxylic acid succinimidyl ester label, 3:1 fluorophore:protein ratio
# How the values were obtained:
# [1] = molecular target: T1, full-length RGS8, GST-fusion protein, …; test: flow cytometry protein interaction assay
# [2] = molecular target: T2, RGS7 RH domain, GST-fusion protein, …; test: flow cytometry protein interaction assay
binder,measurement,setting,value
B1,"bead-associated fluorescence, positive control mean (with AlF4-)",[1],2060
same,"bead-associated fluorescence, positive control mean (with AlF4-)",[2],948
